Experimental data: publication PMC12173945, “Import mechanism of peroxisomal proteins with an N-terminal signal sequence” (Nature Cell Biology, 2025)

Columns and labels:
PEX7–GFP in YG hydrogel = assay: YG hydrogel release assay, PEX7–GFP (Fig. 6a-c,e); assay type: biochemical, yeast
Description: YG hydrogels were prepared in a glass-bottomed plate as described earlier and equilibrated for 3 h at RT in Assay Buffer containing 0.5 µM PEX7–GFP or PEX5–GFP with or without PTS2 peptide and receptor at the concentrations specified in the text. Following the initial incubation, the hydrogels were imaged on a Nikon A1R point-scanning confocal system, as described earlier, with a Nikon ×10 0.45 NA Plan Apo air objective, a pinhole dilated to 1.4 Airy units and a pixel size of 2 µm. A solution of purified PEX39 was then spiked into each reaction and the hydrogels imaged every 2 min for an additional 1 h at RT.
For the PEX7-release assay from YG hydrogels, the total fluorescence within a 30-µm-wide band in the gel extending for 150 µm from the gel edge into the gel was measured at each time point. This distance was sufficient to fully encompass the permeation front of each fluorescent species. The resulting values were then normalized to the total fluorescence inside the gel at the start of the experiment and plotted as a function of time.

yeast PEX7 = assay: Bead-binding assay: PEX39 and PEX7 (Fig. 5c, Extended Data Fig. 9a); parameters: species or system yeast (S. cerevisiae); settings: PEX39-coated beads
From the text: (§1) Cysteine-containing peptides were covalently conjugated to thiol-reactive SulfoLink coupling resin (Thermo Fisher, catalogue number 20401) according to the manufacturer’s instructions. The prepared beads were then mixed with Assay Buffer containing the fluorescently labelled protein as well as additional components indicated in the text, and the resulting bead suspensions were transferred to a 384-well glass-bottomed plate (Cellvis, P384-1.5H-N). GST-fusion proteins were instead mixed with glutathione agarose 4B (Prometheus, 20-543) in Assay Buffer containing the fluorescently labelled protein and additional components indicated in the text; the resulting bead suspensions were then transferred to a glass-bottomed plate as above. The plates were incubated at RT for the durations specified in the text and directly imaged on the spinning-disk confocal platform described earlier for peroxisomal import reactions in Xenopus egg extract. Note that imaging the beads directly in the binding reaction preserves the equilibrium and thereby allows even weak interactions to be detected. Fluorescence was collected through a Nikon ×10 0.45 NA Plan Apo air objective, and images were acquired using the Nikon NIS-Elements software and a 16-bit digitizer without binning. Imaging parameters were configured to maximize the SNR while avoiding saturation. […]

[1] = system: PEX39–PEX7 complex and PTS2–GFP cargo; assay: Bead-binding assay: recruitment of PTS2–GFP to PEX7- or PEX39-coated beads (Fig. 7b,c); parameters: species or system yeast (S. cerevisiae)
From the text: as §1

B1: PEX39 (WT): PEX39 from S. cerevisiae (GenBank accession no. NP_012546.4) (protein)
chain: MAAGGELSYEELLDHILNNKPIPNIVEVPNVTLDEGLASTPSLRPRPRPWEGQLQHQSHQGSLDKPNISLDIDQESLEGMTSLTRLSECYDIQSKLQINDSDNDNDDNNNDNNKGDGNDDDNNTVTANPTAR
modifications: left off: GST, N-terminal, cleaved
- Extraction of PEX7–GFP from YG hydrogel (PEX7–GFP in YG hydrogel; PEX39 or mutants added to preloaded hydrogel): rapidly depleted PEX7–GFP from the hydrogel in a dose-dependent manner
- Extraction of PEX7–GFP from YG hydrogel, PEX5-21 complex (PEX7–GFP in YG hydrogel; with PTS2 peptide and PEX5-21): unable to efficiently extract PEX7–GFP
- Extraction of PEX7–GFP from YG hydrogel, PEX5S (PEX7–GFP in YG hydrogel; with PTS2 peptide and PEX5S): readily extracted
- Recruitment / binding of PEX7 in words (yeast PEX7): could recruit PEX7–GFP
- Recruitment of PTS2–GFP cargo to PEX39–PEX7 [1]: PTS2–GFP cargo was indeed recruited to PEX7-coated beads in the presence of PEX39
